Sequences and labels used below:
B2: L9 Fab (Fab, V domains shown)
VH: QVKLVESGGGVVQPGRSLRLSCEASGFIFSTYGMHWVRQAPGKGLEWVAVIWFDGSNIYYADSVKGRFTISRDNSKNTVFMQMDSLRAEDTAVYYCHRNFYDGSGPFDYWGQGTLVTVSS
VL: DIQMTQSPSTLSASVGDRVTITCRASQFISRWLAWYQQKPGKAPKLLIYKASSLESGVPSRFSGSGSETHFTLTISSLQPDDVATYYCQEYTSYGRTFGQGTKVEIK

Experiment in all cases: SPR
In test [1] the target is B2.
Test [2] concerns the target B2. This is another data set of the same source.
The target of test [3] is SES-1.
Test [4] deals with SES-1. The source holds these as a separate data set.

Values joined by “and” are separate entries in the source; they are usually repeats but may differ in a detail not shown here. Identical values can stand only once. Like-named read-outs stand apart in the source and are kept apart here.

The record followed here is paper PMC13079917 (2026).

B1: SES-2 (single epitope scaffold 2) (designed binder)
chain: AVEDALKKAEAAGDEAAIARAEILLARVEEAREILANPNVDPAVGWALLAAVAPEIAALAGGSY
On to B1, for which, in the test with L9 Fab [1], the dissociation rate constant (koff) (as a rule, the rate constant with which the complex falls apart) was determined as 0.014 s⁻¹. Further, in the test with L9 Fab [2], binding was put at a Kd of 42 nM.
Turning to B2, the Kd (usually the equilibrium constant for the complex coming apart) with SES-1 [3] is 78 nM and 84 nM; in the test with SES-1 [4] it was 78 nM.
